This is an account of results in the DeepSol protein solubility set.

This data set can be described thus: soluble on expression in E. coli; label from the status in PepcDB or PDB records.
As for “SDAMDKRLKIATIGGGSSYTPELVEGLIKRYHELPVGELWLVDIPEGKEKLEIVGALAKRMVEKAGVPIEIHLTLDRRRALDGADFVTTQFRVGGLEARAKDERIPLKYGVIGQETNGPGGLFKGLRTIPVILDIIRDMEELCPDAWLINFTNPAGMVTEAVLRYTKQEKVVGLCNVPIGMRMGVAKLLGVDADRVHIDFAGLNHMVFGLHVYLDGVEVTEKVIDLVAHPDRSGVTMKNIVDLGWEPDFLKGLKVLPCPYHRYYFQTDKMLAEELEAAKTKGTRAEVVQQLEKELFELYKDPNLAIKPPQLEKRGGAYYSDAACSLISSIYNDKRDIQPVNTRNNGAIASISAESAVEVNCVITKDGPKPIAVGDLPVAVRGLVQQIKSFERVAAEAAVTGDYQTALVAMTINPLVPSDTIAKQILDEMLEAHKEYLPQFFKQAKATAGN”, the “soluble on expression in E. coli” value is reported as “soluble”. Regarding “SDLVGVASPEPGTAAAWGPSKCPWAIPQNTISCSLADVMSEQLAKELQLEEEAAVFPEVAVAEGPFITGENIDTSSDLMLAQMLQMEYDREYDAQLRREEKKFNGDSKVSISFENYRKVHPYEDSDSSEDEVDWQDTRDDPYRPAKPVPTPKKGFIGKGKDITTKHDEVVCGRKNTARMENFAPEFQVGDGIGMDLKLSNHVFNALKQHAYSEERRSARLHEKKEHSTAEKAVDPKTRLLMYKMVNSGMLETITGCISTGKESVVFHAYGGSMEDEKEDSKVIPTECAIKVFKTTLNEFKNRDKYIKDDFRFKDRFSKLNPRKIIRMWAEKEMHNLARMQRAGIPCPTVVLLKKHILVMSFIGHDQVPAPKLKEVKLNSEEMKEAYYQTLHLMRQLYHECTLVHADLSEYNMLWHAGKVWLIDVSQSVEPTHPHGLEFLFRDCRNVSQKGGVKEALSERELFNAVSGLNITADNEADFLAEIEALEKMNEDHVQKNGRKAASFLKDDGDPPLLYDE”, the “soluble on expression in E. coli” value is “soluble”. “SDPRGTKRGAEKTEVAEPRNKLPRPAPSLPTDPALYSGPFPFYRRPSELGCFSLDAQRQYHGDARALRYYSPPPTNGPGPNFDLRDGYPDRYQPRDEEVQERLDHLLCWLLEHRGRLEGGPGWLAEAIVTWRGHLTKLLTTPYERQEGWQLAASRFQGTLYLSEVETPNARAQRLARPPLLRELMYMGYKFEQYMCAGELPLLHSPLPLPRG”: the “soluble on expression in E. coli” value is given as “soluble”. The entry for “SDSQSSILEENLEKILRGEGLEFDSVAEQVDPVTLRKNVCYIVGAVIFNSKEEVLMVQEAKRECYGRWYLPAGRMEECESILEALQREVREEAGIDCQPITLLLVQEQGPRWVRFIFLAEETGGSLKTTAEADDESLQAHWWDRKSPLPLRAHDILSLIDAGLKYRRNPWFPVTQPVDFPCHVVCQRLFLTFISSRADADDRLWLLMSNNNTSHHPRLPIVVSFRTYISKAVSKLIEDCMPSSYISVHIRGILGVQHNGRIPGKTDGICFNTLVLLENTEEGAEIGSPPSLETDCYRWQEVTNQGLKAKIIERIKDGSVLPFQSL” is “soluble”; for “SDTRQLPNRPVEVTIMGLGCAQMGNLYRVTPYEESKGAFDKAWESGMRYFDTAPFYGYTRSERRLGTMVTEHDRGDYTLSTKVGRVMVPDETVGPEEDAYIAPLPFRPVYDYSYDGILRSFEASQQRLGILKPDILYVHDIGSHTHGEKHQHYWEQLTTGGGFRALGKLRDEGSTGAVGLGVNEWEIINDAMDVFDIDVAMLAGRYTLLEQQSLAFMNRCAESGVAIVVAGAFNSGILAGNRKFNYADAPADILKRVDALHNVCEELGVSLQAAALQFPLAHPASVTVVSGARNAQQLASNIEWFEQSIPDEFWSELHK” it is “not soluble”. With “SEQETRGANEAIDFNDELRNRREKLAALRQQGVAFPNDFRRDHTSDQLHEEFDAKDNQELESLNIEVSVAGRMMTRRIMGKASFVTLQDVGGRIQLYVARDSLPEGVYNDQFKKWDLGDIIGARGTLFKTQTGELSIHCTELRLLTKALRPLPDKFHGLQDQEVRYRQRYLDLIANDKSRQTFVVRSKILAAIRQFMVARGFMEVETPMMQVIPGGASARPFITHHNALDLDMYLRIAPELYLKRLVVGGFERVFEINRNFRNEGISVRHNPEFTMMELYMAYADYHDLIELTESLFRTLAQEVLGTTKVTYGEHVFDFGKPFEKLTMREAIKKYRPETDMADLDNFDAAKALAESIGITVEKSWGLGRIVTEIFDEVAEAHLIQPTFITEYPAEVSPLARRNDVNPEITDRFEFFIGGREIGNGFSELNDAEDQAERFQEQVNAKAAGDDEAMFYDEDYVTALEYGLPPTAGLGIGIDRMIMLFTNSHTIRDVILFPAMRPQK”, the “soluble on expression in E. coli” value is listed as “soluble”. Under “SESDSEMVPFPQLPMPIENNYRACTIPYRFPSDDPKKATPNEISWINVFANSIPSFKKRAESDITVPDAPARAEKFAERYAGILEDLKKDPESHGGPPDGILLCRLREQVLRELGFRDIFKKVKDEENAKAISLFPQVVSLSDAIEDDGKRLENLVRGIFAGNIFDLGSAQLAEVFSRDGMSFLASCQNLVPRPWVIDDLENFQAKWINKSWKKAVIFVDNSGADIILGILPFARELLRRGAQVVLAANELPSINDITCTELTEILSQLKDENGQLLGVDTSKLLIANSGNDLPVIDLSRVSQELAYLSSDADLVIVEGMGRGIETNLYAQFKCDSLKIGMVKHLEVAEFLGGRLYDCVFKFNEVQS” stands “soluble”; under “SESKKRELFSQIKDLKGTSGNVALLELGCGTGANFQFYPQGCKVTCVDPNPNFEKFLTKSMAENRHLQYERFIVAYGENMKQLADSSMDVVVCTLVLCSVQSPRKVLQEVQRVLRPGGLLFFWEHVAEPQGSRAFLWQRVLEPTWKHIGDGCHLTRETWKDIERAQFSEVQLEWQPPPFRWLPVGPHIMGKAVK”, “soluble”; under “SEWLKSTDYGKYEGLTKNYMDYLSRLYEREIKDFFEVAKIKMTGTTKESKKFGLHGSSGKLTGSTSSLNKLSVQSSGNRRSQSSSLLDMGNMSASDLDVADRTKFDKIFEQVLSELEPLCLAEQDFISKFFKLQQHQSMPGTMAEAEDLDGGTLSRQHNCGTPLPVSSEKDMIRQMMIKIFRCIEPELNNLIALGDKIDSFNSLYMLVKMSHHVWTAQNVDPASFLSTTLGNVLVTVKRNFDKCISNQIRQMEEVKISKKSKVGILPFVAEFEEFAGLAESIFKNAERRGDLDKAYTKLIRGVFVNVEKVANESQKTPRDVVMMENFHHIFATLSRLKISCLEAEKKEAKQKYTDHLQSYVIYSLGQPLEKLNHFFEGVEARVAQGIREEEVSYQLAFNKQELRKVIKEYPGKEVKKGLDNLYKKVDKHLCEEENLLQVVWHSMQDEFIRQYKHFEGLIARCYPGSGVTMEFTIQDILDYCSSIAQSH”, “soluble”. Turning to “SFPNRRIVTTVFNDEGIQFLVTRYIKALNPPQQLLDIFLHNSNATFDLIARFVSLIPFVPNTPDENDGSDIWMTSEHCISLAIGNKEEHAILLCNFFLYFGKKALVLLGTSVLEGHVAYVVTQETNEYLLWNPSTGQCYKQFDPFCPLKSVDCLFDDRNVWFNIQQNNTPMAVFFDYSKESFWKQLLPKNVQGTKIQSIQVTGFPIQMPYIDVQSIIDAVYQTGIHSAEFPQTEFALAVYIHPYPNNILSVWVYLASLVQHQ”, the “soluble on expression in E. coli” value is on record as “soluble”. On to “SFVPSQKTYQGNYGFHLGFLQSGTAKSVMCTYSPPLNKLFCQLAKTCPVQLWVSATPPAGSRVRAMAIYKKSQHMTEVVRRCPHHERCSDGDGLAPPQHLIRVEGNLYPEYLEDRQTFRHSVVVPYEPPEAGSEYTTIHYKYMCNSSCMGGMNRRPILTIITLEDSSGNLLGRDSFEVRVCACPGRDRRTEEENFRKKEVL”, for which the “soluble on expression in E. coli” value is given as “soluble”. The entry for “SGDAASHEERMNNYRKRVGRLFMEQKAAQPDAVKLPSGLVFQRIARGSGKRAPAIDDKCEVHYTGRLRDGTVFDSSRERGKPTTFRPNEVIKGWTEALQLMREGDRWRLFIPYDLAYGVTGGGGMIPPYSPLEFDVELISIKDGGKGRTAEEVDEILRKAEEDREDM” is “soluble”. The entry for “SGDPNSRKKQALNRLRAQLRKKKESLADQFDFKMYIAFVFKEKKKKSALFEVSEVIPVMTNNYEENILKGVRDSSYSLESSLELLQKDVVQLHAPRYQSMRRDVIGCTQEMDFILWPRNDIEKIVCLLFSRWKESDEPFRPVQAKFEFHHGDYEKQFLHVLSRKDKTGIVVNNPNQSVFLFIDRQHLQTPKNKATIFKLCSICLYLPQEQLTHWAVGTIEDHLRPYMPE” is “soluble”. Regarding “SGEKSENCGVPEDLLNGLKVTDTQEAECAGPPVPDPKNQHSQSKLLRDDEAHLQEDQGEEECFHDCSASFEEEPGADKVENKSNEDVNSSELDEEYLIELKKNMSDEEKQKRREESTRLKEEGNEQFKKGDYIEAESSYSRALEMCPSCFQKERSILFSNRAAARMKQDKKEMAINDCSKAIQLNPSYIRAILRRAELYEKTDKLDEALEDYKSILEKDPSIHQAREACMRLPKQIEERNERLKEEMLGKLKDLGNLVLRPFGLSTENFQIKQDSSTGSYSINFVQNPNNNR”, the “soluble on expression in E. coli” value is listed as “soluble”. Under “SGGRRWNWVQSWPVWKYFKEYFPICLVKTQDLDPGHNYIFGFHPHGIFVPGAFGNFCTKYSDFKKLFPGFTSYLHVAKIWFCFPLFREYLMSNGPVSVSKESLSHVLSKDGGGNVSIIVLGGAKEALEAHPGTFTLCIRQRKGFVKMALTHGASLVPVFSFGENDLYKQINNPKGSWLRTIQDAMYDSMGVALPLIYARGIFQHYFGIMPYRKLIYTVVGRPIPVQQILNPTSEQIEELHQTYLEELKKLFNEHKGKYGIPEHETLVFK” stands “soluble”; under “SGIVPQLQNIVSTVNLGCKLDLKTIALRARNAEYNPKRFAAVIMRIREPRTTALIFSSGKMVCTGAKSEEQSRLAARKYARVVQKLGFPAKFLDFKIQNMVGSCDVKFPIRLEGLVLTHQQFSSYEPELFPGLIYRMIKPRIVLLIFVSGKVVLTGAKVRAEIYEAFENIYPILKGFRKTT”, “soluble”. As for “SGNTSSERSGGEKTHRRESRSGKDGTRPKILMDSAEDGDLFQSDDAKEFLAWRQDQESDSKTPLEERPTVFRWKGPGKEIYLSGSFNNWATKIPLNKSHNNFVAIIDLPEGEHQYKFYVDGHWTLDPKEPVVTNKSGVVNNVIKVRKTDFEVFDALKTDSEKCADMSDLSSSPPGPYHQDPYSTKSEDKLRSPPILPPHLLQVLLNKDTGISCDPTLLPEPNHVMLNHLYALSIKDGVMVLSATHRYKKKYVTTLLYKPI”, the “soluble on expression in E. coli” value was “soluble”.

With “SGSELIGRLAPRLGLAEPDMLRKAEEYLRLSRVKCVGLSARTTETSSAVMCLDLAASWMKCPLDRAYLIKLSGLNKETYQSCLKSFECLLGLNSNIGIRDLAVQFSCIEAVNMASKILKSYESSLPQTQQVDLDLSRPLFTSAALLSACKILKLKVDKNKMVATSGVKKAIFDRLCKQLEKIGQQVDREPGDVATPPRKRKKIVVEAPAKEMEKVEEMPHKPQKDEDLTQDYEEWKRKILENAASAQKATAE”, the “soluble on expression in E. coli” value is given as “soluble”.

For “SHEWYAEKPFMLRSFLDRTVLQQAFESPETLTSLGFLESIGITGHNAELDDDRPEKTDALFAEMKKVKETLLTYDDSDLDESQLLSKEIAMYLLDILLVSEPYRYHNYPVNQLFGIQNGYPSFMDAQHQVNSVGDAENYIARLNKVKVKFSQNLEGLKLREEKGILPPRFVIDRVLEEMTAFVAKPAEENILYSSLKAKLSDAEDISPAEQTRLLNLAKEEIIASVHPAYQLLIDYFNQVADKSTTDDGIWKLPDGDKVYAQALKFFTTTDYSAGEIHNIGLHEVDRIQLDILTILEKENYDVSQGFTAAIETLAAQDEFYYPDTKAGREQILTDYQTILDEINAGLESAFRIRPKASMKVRRIPEFKEKTAPGAYYQQPSIDGSRPGMFFANLYDIKATPKYSMRTLAYHEGIPGHHFQIAIAMELEGMPLFRRISPFTAYTEGWALYTERLAWDLGFQDDPFDNIGRLQAELFRAVRLVVDTGIHHKRWTRQEAIDYMVANTGMAHSDVVSEIERYIVMPGQATSYKIGLMKILELRKKAKASLGDKFDLRDFHDVVLKNGAVPLDILTRLVDQYIADKSS”, the “soluble on expression in E. coli” value is reported as “not soluble”.
